Measured values reported in FireProtDB (doi:10.1093/protein/9.5.425).

B1: Tryptophan synthase alpha chain, P0A877 (parent)
chain: MERYESLFAQLKERKEGAFVPFVTLGDPGIEQSLKIIDTLIEAGADALELGIPFSDPLADGPTIQNATLRAFAAGVTPAQCFEMLALIRQKHPTIPIGLLMYANLVFNKGIDEFYAQCEKVGVDSVLVADVPVEESAPFRQAALRHNVAPIFICPPNADDDLLRQIASYGRGYTYLLSRAGVTGAENRAALPLNHLVAKLKEYNAAPPLQGFGISAPDQVKAAIDAGAAGAISGSAIVKIIEQHINEPEKMLAALKVFVQPMKAATRS

Variants of: B1
Conditions: Escherichia coli (strain K12), pH 9, Thermal, DSC, Sodium tetraborate 1 mM, reversible: yes, structure 1WQ5, whole UniProt chain shown

Row | Variant | Tm [°C] | change of melting temperature, mutant - wild type (higher = more stable) [°C] | heat capacity change of unfolding [kcal/mol/K] | unfolding enthalpy (calorimetric) [kcal/mol] | ddG of mutation (higher = less stable) (50 °C) [kcal/mol] | heat capacity change of unfolding (50 °C) [kcal/mol/K] | unfolding free energy (50 °C) [kcal/mol]
1 | C81G | 48.7 | -4.8 | 6.82 | 104 | – | – | –
2 | C81V | 49.1 | -4.4 | 4.31 | 57.4 | – | – | –
3 | C81S | 49.1 | -4.4 | 5.02 | 92.8 | – | – | –
4 | C81A | 51.8 | -1.7 | 4.11 | 83.5 | 0.69 | 4.11 | 0.48
5 | C118S | 45 | -8.5 | 2.3 | 75.6 | – | – | –
6 | C118A | 49.2 | -4.3 | 3.3 | 82.3 | – | – | –
7 | C118V | 49.3 | -4.2 | 2.42 | 73 | – | – | –
8 | C154A | 50.6 | -2.9 | 4.11 | 73 | 1.03 | 4.11 | 0.14
9 | C154V | 50.2 | -3.3 | 4.21 | 71.5 | 1.12 | 4.21 | 0.05
10 | C154S | 45.3 | -8.2 | 3.52 | 46.4 | – | – | –
